Target: T1, FAP45 (flagellar-associated protein 45) (Chlamydomonas (endogenous in axonemes), UniProt A8I9E8 1-501)
T1 sequence (looked up): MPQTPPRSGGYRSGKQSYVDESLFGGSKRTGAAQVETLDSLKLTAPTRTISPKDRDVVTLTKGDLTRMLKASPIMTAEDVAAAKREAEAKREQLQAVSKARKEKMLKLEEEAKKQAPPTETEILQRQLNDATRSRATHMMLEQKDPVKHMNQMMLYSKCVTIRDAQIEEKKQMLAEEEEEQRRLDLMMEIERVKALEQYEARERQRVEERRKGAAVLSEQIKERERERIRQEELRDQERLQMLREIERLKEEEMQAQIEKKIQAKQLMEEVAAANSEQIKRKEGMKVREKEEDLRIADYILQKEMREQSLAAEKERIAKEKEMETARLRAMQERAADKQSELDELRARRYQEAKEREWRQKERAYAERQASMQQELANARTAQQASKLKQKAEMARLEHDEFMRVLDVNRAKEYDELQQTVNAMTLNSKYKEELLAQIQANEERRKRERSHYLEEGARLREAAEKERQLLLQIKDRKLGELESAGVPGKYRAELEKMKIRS
Test: cross-linking

B1: FAP52 (flagellar-associated protein 52) (natural protein, Chlamydomonas (endogenous in axonemes), UniProt A8ILK1 1-615, looked up)
chain: MAEPLVLNSVIGFGGAIENGLIAHPDGRTIIYPLGSTIVLRDRADPRSQEFLQGHSDKVSCLALSRSGRYLASGQITYMGFTADIIIWDLESKQLIHRMALHKVKVQALDFSCDERFLASLGGQDDNALVLWDVASGNAICGSPCNTNFTNCVKFFNNSPDKLITAGNFNMNVWTYDAGNNKLRPTDATLGTLKRVFKSVVVDANDEYAYCGTTTGDVLQIALERVLFKNTGPAKGNVQMGVTATCEVPTGDILVGGGDGSLQLLRKMPALAGTKVEGAITSIALADMNARGFTFFVGTAMCNIYKPATSRLKEELVQTAHNDKINGMAFPNEYSEVFATCGTGFIRLWHLTTCRELLRIAVPNLECFCIAFTTDGSAILSGWSDGKIRAFGPQSGKIIFTINDAHQKAVTAIASTADSSRILSGGEEGMVRVWRIGRTSQTLEASMKDHKGPVNCIRIKGSGDECVSASSDGSCILWDLHTFKRRTSLFANTFFKSVVYHPDESQLVTAGTDRKVTYWDAYDGNAIRIIDGSDLDEVNALAVDRDGEALVSGGGDKLVKLWGYDEGHCYFVGVAHSGAITAVGVTPDKQRIVSVGTEGGIFIWDYQRPQTLADI
  stoichiometry N: ~1
